Experimental data: patent US20200123266A1 (Memorial Sloan Kettering, published 2020)
Ends that are not written are not given here. * marks the point of attachment. Biotin = O=C1N[C@H]2[C@H](CS[C@H]2CCCCC(=O)*)N1

How the values were obtained:
ET140-p25 = target: T1, ET140-p25 (human, cysteine pairing not given here); assay: peptide ELISA, biotin peptide on streptavidin plate, antibody 1 ug/mL
T1 construct: also called peptide 25
T1 peptide: Biotin-SGSGLRCSSNTPPLTCQRY
Experimental: (§1) The peptides were coated onto Streptavidin plates at 2 ug/mL in PBST (PBS+0.05% Tween-20). After washing and blocking with 3% BSA. After washing, 1 ug/mL ET140-3, ET140-24, ET140-54 or ET901 mIgG1 was added to the wells, respectively. “mIgG1” used in all Examples represents that the variable region is fully human and the Fc part is mouse IgG1. Then HRP anti-mouse IgG detection antibody was added to each well. Finally, the color was developed using TMB substrate. A450 was recorded for data analysis.

ET140-p26 = target: T2, ET140-p26 (human, cysteine pairing not given here); assay: as above
T2 construct: also called peptide 26
T2 peptide: Biotin-SGSGRCSSNTPPLTCQRYC
Experimental: as §1

B1: ET140-153 mIgG1 (antibody, V domains shown)
VH: QVQLVQSGAEVKKPGSSVKVSCKASGGTFSSYAISWVRQAPGQGLEWMGRIIPILGIANYAQKFQGRVTITADKSTSTAYMELSSLRSEDTAVYYCARGGYYSHDMWSEDWGQGTLVTVSS
VL: LPVLTQPPSASGTPGQRVTISCSGRSSNIGSNSVNWYRQLPGAAPKLLIYSNNQRPPGVPVRFSGSKSGTSASLAISGLQSEDEATYYCATWDDNLNVHYVFGTGTKVTVLG
notes: also called ET140-3 mIgG1; ET140-3
- A450 (ET140-p25): 0.583
- A450 (ET140-p26): 0.225
